Experimental data reported in article PMC6135743.

Experiments:
[1] = target: B41 viral Env trimer from infectious virus (HIV-1 strain B41 (subtype B)); assay: native gel or EMSA
[2] = target: BG505 N332 SOSIP.664 soluble Env trimer (HIV-1 strain BG505 (subtype A)); assay: native gel or EMSA
[3] = target: JR-FL ΔCT membrane-bound Env trimer (HIV-1 strain JR-FL (subtype B)) (UniProt Q75760); assay: native gel or EMSA
[4] = target: BG505 viral Env trimer from infectious virus (HIV-1 strain BG505 (subtype A)); assay: native gel or EMSA
[5] = target: JR-FL E168K SOSIP.664 soluble Env trimer (HIV-1 strain JR-FL (subtype B)) (UniProt Q75760); assay: native gel or EMSA
[6] = target: BG505 ΔCT N332 membrane-bound Env trimer (HIV-1 strain BG505 (subtype A)); assay: native gel or EMSA
[7] = target: BG505 ΔCT T332 membrane-bound Env trimer (HIV-1 strain BG505 (subtype A)); assay: native gel or EMSA
[8] = target: B41 ΔCT membrane-bound Env trimer (HIV-1 strain B41 (subtype B)); assay: native gel or EMSA
[9] = target: B41 SOSIP.664 soluble Env trimer (HIV-1 strain B41 (subtype B)); assay: native gel or EMSA
[10] = target: JR-FL viral Env trimer from infectious virus (HIV-1 strain JR-FL (subtype B)); assay: native gel or EMSA
[11] = target: BG505 ΔCT T332 membrane-bound Env trimer (HIV-1 strain BG505 (subtype A)); assay: cryo-EM structure
[12] = target: B41 viral Env trimer from infectious virus (HIV-1 strain B41 (subtype B))

B41 viral Env trimer from infectious virus (complex)
stoichiometry N [1]: 3

BG505 N332 SOSIP.664 soluble Env trimer (complex)
stoichiometry N [2]: 3

JR-FL ΔCT membrane-bound Env trimer (from UniProt Q75760 1-847) (complex)
stoichiometry N [3]: 3

BG505 viral Env trimer from infectious virus (complex)
stoichiometry N [4]: 3

JR-FL E168K SOSIP.664 soluble Env trimer (from UniProt Q75760 1-847) (complex)
stoichiometry N [5]: 3

BG505 ΔCT N332 membrane-bound Env trimer (complex)
stoichiometry N [6]: 3

BG505 ΔCT T332 membrane-bound Env trimer (complex)
stoichiometry N [7]: 3

B41 ΔCT membrane-bound Env trimer (complex)
stoichiometry N [8]: 3

B41 SOSIP.664 soluble Env trimer (complex)
stoichiometry N [9]: 3

JR-FL viral Env trimer from infectious virus (complex)
stoichiometry N [10]: 3

PGT151 Fab
stoichiometry N (Fabs per trimer) [11]: < 2

B1: PGT151 monoclonal antibody (bnAb) (antibody, V domains shown)
VH: RVQLVESGGGVVQPGKSVRLSCVVSDFPFSKYPMYWVRQAPGKGLEWVAAISGDAWHVVYSNSVQGRFLVSRDNVKNTLYLEMNSLKIEDTAVYRCARMFQESGPPRLDRWSGRNYYYYSGMDVWGQGTTVTVSS
VL: DIVMTQTPLSLSVTPGQPASISCKSSESLRQSNGKTSLYWYRQKPGQSPQLLVFEVSNRFSGVSDRFVGSGSGTDFTLRISRVEAEDVGFYYCMQSKDFPLTFGGGTKVDLK
neutralisation of B41 virus, maximal percent (Supplementary Figure 5) [12]: < 75%
